Measured values published in PMC12162814.

Tests used:
H-NSctd K107A = H-NSctd K107A (Salmonella enterica serovar Typhimurium, UniProt P0A1S2 85-137, K107A); experiment: NMR titration
H-NSctd WT [1] = molecular target: T1, H-NSctd WT (Salmonella enterica serovar Typhimurium, UniProt P0A1S2 85-137); experiment: NMR titration
H-NSctd T115A = H-NSctd T115A (Salmonella enterica serovar Typhimurium, UniProt P0A1S2 85-137, T115A); experiment: NMR titration
H-NSctd WT [2] = molecular target: T1, H-NSctd WT; experiment: NMR titration; remark: listed apart in the source
H-NSctd WT [3] = molecular target: T1, H-NSctd WT; experiment: ITC

B1: 3AT DNA (dsDNA)
DNA 1: CGCATATATGCG
DNA 2: CGCATATATGCG
Kd (H-NSctd K107A): 5.3 ± 1.6 µM | Kd (H-NSctd WT [1]): 1500 ± 500 nM | Kd (H-NSctd T115A): 4.1 ± 1.2 µM | Kd (H-NSctd WT [2]): 6.3 ± 0.6 µM | Kd (H-NSctd WT [3]): 7.6 ± 0.5 µM
